# Reference: patent publication US20250019450A1 (DIAGONAL THERAPEUTICS, published 2025)
# Positions count from the first letter of the chain named.
# B1: DGL585 (bispecific antibody, V domains shown)
# V domain 1: QVQLVESGGGLVQAGGSLRLSCAASGRTFSSYVMGWFRQAPGQEREFVAAIMRNGIMTYYADSVKGRFTISRDNAKNTVYLQMNTLKPDDTAVYYCAAASRVGVSISQSSSYTSWGQGTQVTVEP
# V domain 2: QVQLVESGGGLVRPGGSLRLSCAASGFTFSSNGMHWFRQAPGKGLEWVSSIGSGGTSIYYADSVKGRFTISRDNAKNTLYLQMNSLKSDDTAVYYCSKEVTGATRGQGTQVTVEP
# B2: DGL478 (bispecific antibody, V domains shown)
# V domain 1: QVQLVESGGGLVQAGGSLRLSCAAPGRYAVGWFRQAPGKEYEFVAAITVSGGSKYYEDSVKGRFAISRDNAKNTVYLQMNSLKAEDTAVYYCAARTPKFGSGWYNRRGEYDYWGQGTQVTVEP
# V domain 2: QVQLVESGGGLVQAGGSLRLSCAASGRIFSAYRMGWFRQAPGKEREFVAGITWRGQTTYYAASVKGRFTISKDNAKKTVYLQMNSLKPEETAVYYCAVETNGLGRWDRPSEYDYWGQGTQVTVEP
# B3: DGL552 (bispecific antibody, V domains shown)
# V domain 1: QVQLVESGGGLVQAGGSLRLSCAASGRTFGTYAMGWFRQAPGKERDFVARISNSGAFTHYADSVKGRFTISRDNAKNTVYLHMNSLENGDTAAYYCVATRGTNSAYYTRSTMYEYWGQGTQVTVEP
# V domain 2: B2 V domain 2
# B4: DGL503 (bispecific antibody, V domains shown)
# V domain 1: EVQLVESGGGLVQAGGSLRLSCAASGLTFRNYAMAWFRQAPGKEREFVAGITWGGGLTHYVDSVKGRFTISRDNGKNTVYLQMNSLKSEDTAVYYCAGKTQGSTWYHLTPDGYDYWGQGTQVTVEP
# V domain 2: B2 V domain 2
# B5: DGL448 (bispecific antibody, human IgG1, lambda)
# heavy 1: not shown
# heavy 2: EVQLVESGGGLVQPGGSLRLSCAASGFTFSTYDMHWVRQATGKGLEWVSLIDTAGDTYYPDSVKGRFTISRENAKNSLYLQMNSLRAGDTAVYYCAREGWGYFDYWGQGALVTVSSASTKGPSVFPLAPSSKSTSGGTAALGCLVKDYFPEPVTVSWNSGALTSGVHTFPAVLQSSGLYSLSSVVTVPSSSLGTQTYICNVNHKPSNTKVDKKVEPKSCDKTHTCPPCPAPEAAGAPSVFLFPPKPKDTLMISRTPEVTCVVVDVSHEDPEVKFNWYVDGVEVHNAKTKPREEQYNSTYRVVSVLTVLHQDWLNGKEYKCKVSNKALPAPIEKTISKAKGQPREPQVCTLPPSRDELTKNQVSLSCAVKGFYPSDIAVEWESNGQPENNYKTTPPVLDSDGSFFLVSKLTVDKSRWQQGNVFSCSVMHEALHNRFTQKSLSLSPG
# light: QSALTQPPSVSGSPGQSVTISCTGTSSDVGSYNRVSWYQQPPGTAPKLMIYEVSNRPSGVPDRFSGSKSGNTASLTISGLQAEDEADYYCSLYTGSSTVVFGGGTKVTVLGQPKAAPSVTLFPPSSEELQANKATLVCLISDFYPGAVTVAWKADSSPVKAGVETTTPSKQSNNKYAASSYLSLTPEQWKSHRSYSCQVTHEGSTVEKTVAPTECS
# B6: DGL445 (bispecific antibody, human IgG1, lambda)
# heavy 1: not shown
# heavy 2: QVQLVQPGAEVKKPGASVKVSCKASGYTFTGYYMHWVRQAPGQGLEWMGWINPKSGGTNYAQKFQGRVTMTRDTSISTAYMELTRLRSDDTAVYYCARDQGYGDYVLKHWGQGTLVTVSSASTKGPSVFPLAPSSKSTSGGTAALGCLVKDYFPEPVTVSWNSGALTSGVHTFPAVLQSSGLYSLSSVVTVPSSSLGTQTYICNVNHKPSNTKVDKKVEPKSCDKTHTCPPCPAPEAAGAPSVFLFPPKPKDTLMISRTPEVTCVVVDVSHEDPEVKFNWYVDGVEVHNAKTKPREEQYNSTYRVVSVLTVLHQDWLNGKEYKCKVSNKALPAPIEKTISKAKGQPREPQVCTLPPSRDELTKNQVSLSCAVKGFYPSDIAVEWESNGQPENNYKTTPPVLDSDGSFFLVSKLTVDKSRWQQGNVFSCSVMHEALHNRFTQKSLSLSPG
# light: SYVLTQPPSVSVAPGQTARITCGGDNIGSKSVHWYQQKPGQAPVPVVYDDSDRPSGIPERFSGSNSGNTATLTISRVEAGDEADYYCQVWDSSSDHVVFGGGTKLTVLGQPKAAPSVTLFPPSSEELQANKATLVCLISDFYPGAVTVAWKADSSPVKAGVETTTPSKQSNNKYAASSYLSLTPEQWKSHRSYSCQVTHEGSTVEKTVAPTECS
# B7: DGL574 (bispecific antibody, V domains shown)
# V domain 1: QVQLVESGGGLVQAGGSLRLSCAASRSISSFNEMAWYRQAPGEQRELVATIVSTVGFTNYADSVKGRFTISRDNAKNTVYLQMNSLKAEDTAVYYCNARRISTDYWGQGTQVTVEP
# V domain 2: QVQLVESGGGLVQAGGSLRLSCAASGRTFSRYRMGWFRQAPGKEREFVAAITKSGATTYDADSVKGRFTISRDNAKNTLYLQMNSLKPEDTAVYYCAASYHSNWWPKNADEYAYWGQGTQVTVEP
# B8: DGL533 (bispecific antibody, V domains shown)
# V domain 1: EVQLVESGGGLVQPGGSLTLSCTASGFRFSDRSMGWYRQAPGKQRELVAAITVGGSTNYADSVKGRFTISRDNAKNTVYLQMNSLKPEDTALYYCNRRYPPDDYWGQGTQVTVEP
# V domain 2: QVQLVESGGGLVQAGGSLRLSCAASGRTFSSYAMGWFRQAPGKEREFVSAISWSGLSTYYVESVQGRFTISRDNAKNTVYLQMNSLKPEDTAVYYCAASRIYTNYVARSYEYDDWGQGTQVTVEP
# B9: DGL504 (bispecific antibody, V domains shown)
# V domain 1: B4 V domain 1
# V domain 2: B8 V domain 2
# B10: DGL579 (bispecific antibody, V domains shown)
# V domain 1: B7 V domain 1
# V domain 2: B8 V domain 2
# B11: DGL541 (bispecific antibody, V domains shown)
# V domain 1: QVQLVESGGGLVQAGGSLRLSCAASGRTFRTYAMGWFRQAPGKDREVVGIAAWKVASTYYVDYGDSVRGRFTISRDDAKSTVYLQMNNLMPEDTAVYYCAAGAFRTDWRSYAYWGQGTQVTVEP
# V domain 2: B8 V domain 2
# B12: VHH86B1 (VHH)
# VHH: QVQLVESGGGLMQAGGSLRLSCALSRGIFSAYAMGWFRQVQGKEREFVSGISRSGSTTDYVDTAKGRFTISRDNARDTVYLQMNSLKPEDTAVYYCAAVTGTFPSSTYHNANAYHHWGQGTQVTVSS
# B13: VHH67B1 (VHH)
# VHH: QVQLVESGGGLVQAGGSLRLSCAASARIFNSYAVAWFRQTPGKEREFVASISWSGGSTNYADSVKGRFTISRDNAKNTVFLQMNSLKPADTAVYYCAADRNYYPSVLGKYTYWGQGTQVTVSS
# B14: VHH136B1 (VHH)
# VHH: B2 V domain 1 with V5Q, A65T, Q78E, E122S, P123S
# B15: VHH58B1 (VHH)
# VHH: B2 V domain 1 with E122S, P123S
# B16: VHH172B1 (VHH)
# VHH: B2 V domain 1 with A65T, Q78E, T120A, E122S, P123S
# B17: VHH25B1 (VHH)
# VHH: QVQLQESGGALVQPGGSLRLSCVVSGFTSDYFAIGWFRQAPGKEREGVSCIGSSDGSTIYSDSVKGRFTISRDNAKNTVYLQMNSLKPEDTGVYYCALDRGRRTIIGYACYATMKYWGKGTPVTVSS
# B18: VHH54B1 (VHH)
# VHH: QVQLVESGGGLVQAGGSLRLSCAASGGPFSGYVMGWFRQVSGKEREFVAGITGISSTYFADSVKGRFTISRDNAKNMVYLQMNSLKPEDTAVYYCAAVNSFGVIPTSPNGMDYWGKGTLVTVSS
# B19: VHH50B1 (VHH)
# VHH: QVQLVESGGGLVQAGGSLRLSCAASGRAFSRYSMGWFRQAPGKEREFVAANYWSNGWTDYADTVKGRFSISRDNAKNTVYLQMNSLKPEDTAVYYCAGRSSSIPSADVVGYDYWGQGTQVTVSS
# B20: VHH72B1 (VHH)
# VHH: B4 V domain 1 with E125S, P126S
# Target: human IL-12 receptor (IL-12Rβ1 and IL-12Rβ2) on HEK-Blue IL-12 cells (human, UniProt P42701 24-662; Q99665 24-862)
# Assay: cell-based or functional assay
# Sequence of human IL-12 receptor (IL-12Rβ1 and IL-12Rβ2) on HEK-Blue IL-12 cells (Q99665 24-862, chain 2 of 2, other chains not shown): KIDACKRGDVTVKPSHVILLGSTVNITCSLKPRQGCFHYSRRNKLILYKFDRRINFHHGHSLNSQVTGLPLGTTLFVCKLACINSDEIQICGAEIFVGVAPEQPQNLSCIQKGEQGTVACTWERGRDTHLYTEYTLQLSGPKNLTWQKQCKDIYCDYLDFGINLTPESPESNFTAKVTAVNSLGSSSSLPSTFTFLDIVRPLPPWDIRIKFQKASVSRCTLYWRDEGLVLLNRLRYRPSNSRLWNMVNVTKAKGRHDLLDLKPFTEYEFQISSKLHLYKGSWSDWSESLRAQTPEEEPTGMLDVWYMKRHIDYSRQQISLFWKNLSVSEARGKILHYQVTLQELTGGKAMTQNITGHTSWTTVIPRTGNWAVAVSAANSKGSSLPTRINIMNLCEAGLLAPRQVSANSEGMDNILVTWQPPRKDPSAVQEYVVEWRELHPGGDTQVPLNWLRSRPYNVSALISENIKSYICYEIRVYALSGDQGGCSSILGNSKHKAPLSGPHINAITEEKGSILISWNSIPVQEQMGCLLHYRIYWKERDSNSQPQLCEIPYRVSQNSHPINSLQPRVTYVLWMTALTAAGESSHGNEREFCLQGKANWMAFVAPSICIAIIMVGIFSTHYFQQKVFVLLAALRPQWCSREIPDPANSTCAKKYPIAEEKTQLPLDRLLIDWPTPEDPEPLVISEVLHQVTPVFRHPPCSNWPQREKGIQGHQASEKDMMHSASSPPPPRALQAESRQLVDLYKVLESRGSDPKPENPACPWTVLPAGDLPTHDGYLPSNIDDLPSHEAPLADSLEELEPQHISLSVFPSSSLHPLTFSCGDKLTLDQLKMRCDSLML
EC50,Max Absorbance,Binder
3.2e-09 M (implied),0.37,B1
4e-09 M (implied),0.4,B2
> 100 nM,0.4,B3
,0.35,B4
1e-09 M (implied),0.39,B5
> 100 nM,0.42,B6
> 100 nM,0.41,B7
> 100 nM,0.42,B8
> 100 nM,0.41,B9
,0.36,B10
,0.37,B11

# Target: T1, human IL-12Rβ1-his (Acro Biosystems), biotinylated (human, UniProt P42701 24-545, biotinylated)
# T1 construct: bought; captured on Neutravidin in the ELISA; also called Bio-huIL-12Rβ1-His
# Assay: ELISA, periplasmic extract
row,OD450 nm,Binder
1,0.422,B12
2,2.93,B13
3,2.84,B14
4,3.03,B15
5,3.14,B16
6,0.479,B17
7,0.822,B18
8,0.151,B19
9,1.98,B20

# Target: T2, human IL-12RB1 with C-terminal FLAG tag, transiently expressed on HEK-293T cells (human, UniProt P42701 24-662)
# T2 construct: whole, on cells
# Assay: FACS, periplasmic extract, HEK-293T
row,FOB,Binder
1,104 fold,B12
2,88 fold,B13
3,80 fold,B14
4,82 fold,B15
5,75.1 fold,B16
6,160 fold,B17
7,43 fold,B18
8,132 fold,B19
9,117 fold,B20

# Target: T3, cyno IL-12RB1 with C-terminal FLAG tag, transiently expressed on HEK-293T cells (cyno, UniProt A0A2K5VWV1 24-662)
# T3 construct: whole, on cells
# Assay: FACS, periplasmic extract, HEK-293T
row,FOB,Binder
1,64 fold,B12
2,82 fold,B13
3,88 fold,B14
4,88 fold,B15
5,50 fold,B16
6,121 fold,B17
7,19 fold,B18
8,106 fold,B19
9,120 fold,B20
